Experimental data reported in US7109299.
Bridge positions count the residues as written; N and C are the ends. Ends that are not written are not given here.

T1: IL-5RαECD, extracellular domain (ECD) of the human IL-5 receptor α chain, soluble (human) (UniProt Q01344)
T1 sequence (Q01344 whole entry, looked up): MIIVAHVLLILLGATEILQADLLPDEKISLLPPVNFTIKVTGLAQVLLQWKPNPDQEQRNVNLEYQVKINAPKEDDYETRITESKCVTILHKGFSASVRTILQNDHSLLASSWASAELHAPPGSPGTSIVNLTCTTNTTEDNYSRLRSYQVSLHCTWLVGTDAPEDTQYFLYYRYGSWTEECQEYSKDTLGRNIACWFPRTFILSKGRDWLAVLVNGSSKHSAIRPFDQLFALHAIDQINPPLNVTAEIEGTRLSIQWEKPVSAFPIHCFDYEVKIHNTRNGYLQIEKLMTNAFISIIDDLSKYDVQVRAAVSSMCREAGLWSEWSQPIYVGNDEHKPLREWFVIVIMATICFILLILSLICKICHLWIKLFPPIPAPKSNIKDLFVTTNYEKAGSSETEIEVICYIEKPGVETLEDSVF

B1: dimer of (H)-…-(NH2) (peptide)
peptide: H-EGYVCVEFARCPTCR-NH2
modifications: disulfide (positions not given here); also: dimer, intramolecular and intermolecular disulfides, places not given here
B2: dimer of (H)-…-(NH2) (peptide)
peptide: H-EGYVCVEWARCPTCR-NH2
modifications: disulfide (positions not given here); also: dimer, intramolecular and intermolecular disulfide linkages, places not given here
B3: dimeric form of AF17362 (spontaneously formed disulfide-linked dimer) (peptide)
peptide: TGGGDGYVCVEWARCPTCK
modifications: disulfide 15-18; also: homodimer linked by a Cys9-Cys9 interchain disulfide, disulfide at 9, other end not in the chain

Tests used:
[1] = molecular target: T1, IL-5RαECD, extracellular domain (ECD) of the human IL-5 receptor α chain, soluble (human); experiment: scintillation proximity competition assay, dimer against 20 pM [125I] IL-5 on IL-5Rα coated beads
[2] = molecular target: T1, IL-5RαECD, extracellular domain (ECD) of the human IL-5 receptor α chain, soluble (human); experiment: competition with [125I] IL-5 for binding to immobilised IL-5Rα ECD; peptide after 10 days, disulfide-linked dimer

Binder	SPA pIC50 [1]	IC50 [2] [nM]
B1	6.4	–
B2	8.1	–
B3	–	0.55
